Test results reported in patent publication US20200256880A1, “Neuronal Assay Method Involving Calcineurin” (The Broad Institute, Inc., priority 2017, published 2020).
Where two headings read alike, the source gives them in different places.

B1: brain-derived neurotrophic factor (protein, UniProt P23560 19-247, looked up)
Neurotrophic factor BDNF …: APMKEANIRGQGGLAYPGVRTHGTLESVNGPKAGSRGLTSLADTFEHVIEELLDEDQKVRPNEENNKDADLYTSRVMLSSQVPLEPPLLFLLEEYKNYLDAANMSMRVRRHSDPARRGELSVCDSISEWVTAADKKTAVDMSGGTVTVLEKVPVSKGQLKQYFYETKCNPMGYTKEGCRGIDKRHWNSQCRTTQSYVRALTMDSKKRIGWRFIRIDTSCVCTLTIKRGR
B2: monoclonal mouse anti-pS469 CNAα antibody: monoclonal mouse antibody with the heavy and light chain variable regions listed in the Sequence Table (antibody, V domains shown)
VH: EVQLQQSGAELVRPGASVKLSCTASDFNIKDTYIHWLKQRPEQGLEWIGRIDPANSNPKYDPNFQGKATITTDTSSNTAYLQLSSLTSDDTAVYYCTRRDYYGSGSWFAYWGQGTLVTVSS
VL: DIVMTQAAPSVPVTPGESVSISCRSSKSLLHSNGNTYLYWFLQRPGQSPQLLIYRMSNLASGVPDRFSGSGSGTAFTLRINRVEAEDVGVYYCMQHLEYPLTFGAGTKLELK

Tests used:
[1] = system: phospho-S469 CNAα in rat hippocampal neurons; type: cell-based
phosphorylated CNAα = molecular target: T1, phosphorylated CNAα (Mus musculus, UniProt P63328); assay: Lambda phosphatase de-phosphorylation specificity test on membrane; type: binding; details: cortical neuron (15DIV) lysates on PVDF membrane, with or without cLTP
T1 construct: protein lysates from cortical neurons (15DIV), either 5 min post-cLTP induction or no cLTP control; endogenous in cells; host or cells: primary cortical neurons (15DIV)
Protocol: To further test the specificity of the murine monoclonal antibody for phosphorylated CNAα, de-phosphorylation experiments were performed using lambda phosphatase on protein fixed in a membrane. Specifically, protein lysates from cortical neurons (15DIV), either 5 min post-cLTP induction or no cLTP control, were separated by SDS-PAGE and subsequently transferred to a PVDF membrane. One section of the membrane was incubated overnight at room temperature with lambda phosphatase (FIG. 13, top panel, right blot), while another section was incubated under the same conditions without phosphatase (FIG. 13, top panel, left blot). Following these incubations, the phosphatase-treated and control membrane sections were incubated with the antibody and antibody binding was detected by chemiluminescence. […] As a loading control, the level of total CNAα was also assessed in both membranes sections after the incubations with or without phosphatase (bottom panel of the figure).

CNAα recombinant protein = assay: Western blot of CNAα recombinant protein WT, S469E and S462E/S469E with monoclonal antibody; type: binding
Protocol: The validation of the specificity of the antibody for pS469 was additionally determined by Western blot using CNAα recombinant protein WT (unphosphorylated), the phosphomimic mutant S469E (see examples above) and a double mutant with substitutions of E for S at both positions 462 and 469 (S462E/S469E). […] Levels of total CNAα were used as a loading control and were assessed after stripping of the membranes and incubation with anti-CNAα rabbit by chemiluminescence (bottom panel).

[2] = listed as monoclonal murine anti-S469 CNAα phosphospecific antibody

| Molecule | levels of phospho-S469 CNAα within dendrites [1] | recognition of CNAα with or without lambda phosphatase treatment (phosphorylated CNAα; listed as monoclonal antibody) | recognition of CNAα with or without lambda phosphatase treatment (phosphorylated CNAα; listed as monoclonal murine anti-S469 phosphospecific antibody) | recognition of double mutant S462E/S469E (CNAα recombinant protein) | recognition of recombinant protein S469E (CNAα recombinant protein) | recognition of wild-type unphosphorylated CNAα recombinant protein (CNAα recombinant protein) | recognition of double mutant S462E/S469E (CNAα recombinant protein; [2]) | recognition of recombinant protein S469E (CNAα recombinant protein; [2]) | recognition of wild-type unphosphorylated CNAα recombinant protein (CNAα recombinant protein; [2]) |
| --- | --- | --- | --- | --- | --- | --- | --- | --- | --- |
| B1 | no change |  |  |  |  |  |  |  |  |
| B2 |  | only able to recognize CNAα in absence of lambda phosphatase treatment | eliminated phosphospecific antibody binding | recognition | recognizes | not | does recognize | does recognize | does not recognize |
